Patent US20260159561A1 (MyNeuroCure Oy, priority 2017, published 2026)

Tests used:
[1] = tested on: ER stressed superior cervical ganglia (SCG) sympathetic neurons; assay: Survival of tunicamycin ER-stressed SCG neurons microinjected with expression plasmids; format: cell-based, mouse; conditions: expressed from microinjected plasmids; tunicamycin 2 μM; counted after three days
Protocol: (§1) Non-neuronal cells were removed by extensive preplating. Almost pure neurons were cultured in polyornithine/laminin (Sigma)-coated 35-mm plastic dishes in the small-size standard microislands in the Neurobasal medium and B27 supplement (Invitrogen/Gibco) in the presence of 30 ng/ml mouse nerve growth factor (NGF) (Promega) for 5-6 days. NGF was deprived by extensive washing and addition of the function-blocking anti-NGF antibodies (Roche). The neurons were pressure-microinjected with special neuronal microinjection equipment (Hellman et al., 2011; Hamner et al., 2001; Lindholm et al., 2002; Sun et al., 2001; Yu et al., 2003)(Sun et al., 2001; Sun et al., 2003). For the survival assay, all neurons on the microislands were counted in the beginning (initial number) and the end (three days) of the experiment and expressed as % of initial.
(§2) Microinjection of the sympathetic neurons was performed as described earlier (Yu, L. Y., Jokitalo, E., Sun, Y. F., Mehlen, P., Lindholm, D., Saarma, M., and Arumäe, U. (2003) J. Cell Biol. 163, 987-997). […] Next day tunicamycin (2 μM) was added, and after 3 days the living fluorescent neurons were counted. Living fluorescent (EGFP-expressing or Dextran Texas Red-containing) neurons were “blindly” counted three days later and expressed as percent of initial living fluorescent neurons counted 2-3 hours after microinjection. […]

ER stressed SCG neurons = assay: Survival of tunicamycin ER-stressed SCG neurons microinjected with recombinant protein; format: cell-based, mouse; conditions: recombinant protein microinjected into the cytoplasm; tunicamycin 2 μM; counted after 3 days
Protocol: as §1, §2

dopaminergic neurons = assay: Survival of TH-positive dopaminergic neurons in midbrain cultures; format: cell-based; conditions: added to culture medium, 5 days, E13/E13.5 NMRI mouse midbrain floors
Protocol: To study the dopamine neurons (Yu et al., 2008; Yu and Arumae, 2008), the midbrain floors were dissected from the ventral mesencephali of 13.5-d-old NMRI strain mouse embryos. Tissues were incubated with 0.5% trypsin (ICN Biomedical), then mechanically dissociated using a large fire-polished Pasteur pipette. […] Same amount of the neurons were plated to each well at the beginning of the experiments. The cultures without added neurotrophic factors served as the negative control. As the midbrain cultures contain several neuronal types, the cultures were fixed and immunostained with the antibodies to tyrosine hydroxylase (TH) (Millipore), a specific marker for the dopaminergic neurons. Images of each well were scanned by CellInsight™ and immunopositive neurons were counted by CellProfiler and CellProfiler analyst software. Data are expressed as a percentage of GDNF-maintained TH-positive neurons. All experiments were repeated at least three times on the independent cultures. The results were expressed as the mean the SEM and were tested for the significance by either one-way ANOVA and Tukey's post hoc test or by two-tailed Student's t-test. The null hypothesis was rejected at P<0.05.

SOD1-G93A mice = assay: SOD1-G93A mouse ALS model, single intracerebroventricular injection; format: in vivo; conditions: females, vs PBS
From the text: Transgenic SOD1 G93A mice served as a transgenic mouse model for ALS in this study. Transgenic mice containing various human SOD1 mutations develop progressive neurodegeneration and motoneuron (MN) death, providing an animal model that has been commonly used for preclinical trials and that has greatly contributed to the understanding of FALS pathogenesis (Gurney et al., 1994). […] In these mice hind limb weakness and tremulous movement appear as initial symptoms at 8-10 week of age, followed by major symptoms such as progressive motor paralysis and neurogenic amyotrophy (Shibata 2001). These mice subsequently show disability of gait, eating and drinking and die within some weeks, usually at 14-16 week of age. […] Transgenic expression was analyzed by DNA tail tests and PCR, using specific oligonucleotides and conditions as done previously by others (see homepage Jackson Lab). […]
Mice were then evaluated for signs of disease and body weight changes twice a week. […]
Clinical scoring for SOD1 mice was done using instructions from Jackson laboratory. […] Animals were scored by lifting them gently by the base of their tails and observing them for tremors, stiffness and their ability to extend their limbs. […]

[2] = rat, in vivo, sc
Protocol: ^125I-CDNF, ^125I C-CDNF or ^125I C-MANF (all proteins at 106 cpm in 10 μl) were injected subcutaneously to adult male Wistar rats. Animals were perfused with PBS 2 hours later. Radioactivity was analyzed in different brain regions by gamma counter. Data are shown as mean±SEM. The differences between groups were analyzed ANOVA followed by Tukey-Kramers post hoc test.

[3] = tested on: rat model of cerebral ischemia
Protocol: Male Sprague Dawley rats (weight 230-270 g, Envigo, Netherlands) were used for the experiments which were conducted according to the 3R principles of EU directive 2010/63/EU on the care and use of experimental animals, local laws and regulations, and were approved by the national Animal Experiment Board of Finland All experiments were performed in a blinded manner and the rats were assigned to different treatment groups randomly. Rats were anesthesized with chloral hydrate (0.4 g/kg, i.p). […] Briefly, the bilateral CCAs were identified and isolated through a ventral midline cervical incision. Rats were placed in stereotaxic apparatus and a craniotomy was made in the right hemisphere. The right (MCA) was ligated with a 10-0 suture and bilateral common carotids (CCA) were ligated with non-traumatic arterial clamps for 60 minutes. After sixty minutes of ischemia, the suture around the MCA and arterial clips on CCAs were removed to introduce a reperfusional injury. After recovery from anesthesia, the rats were returned to their home cage. Body temperatures during and after surgery were maintained at 37° C.
To test the neuroprotective effect of subcutaneous C-CDNF, 50 μg of C-CDNF was given 30-50 min before dMCA occlusion and immediately after reperfusion in volume of 100 μl s.c. Phosphate-buffered saline (PBS) was used as vehicle control. The rats were euthanized 2 days after dMCAo to measure the infarction volume by 2% 2,3,5-triphenyltetrazolium chloride (TTC; Sigma Aldrich, St. Louis, MO) staining. Rats were decapitated and the brains were removed and sliced into 2.0-mm-thick sections using an acrylic rat brain block. The brain slices were incubated in a 2% TTC solution (Sigma, St. Louis, MO, USA) for 15 min at room temperature and then transferred into a 4% paraformaldehyde solution for fixation. The area of infarction in each slice was measured with a digital scanner and ImageJ software. The volume of infarction in each animal was obtained from the product of average slice thickness (2 mm) and sum of infarction areas in rostral brain slices examined. […]

B1: C-CDNF: Human C-CDNF, SEQ ID NO: 4: C-terminal domain of mature CDNF, amino acid 101 to 161; recombinant, Histidine tag at C-terminus (protein, listed as Homo sapiens)
chain: KYEKTLDLASVDLRKMRVAELKQILHSWGEECRACAEKTDYVNLIQELAPKYAATHPKTEL
- living fluorescent neurons, percentage of initial neurons [1]: rescue ER stressed superior cervical ganglia (SCG) sympathetic neurons
- living fluorescent neurons, percentage of initial neurons (ER stressed SCG neurons): rescue ER stressed SCG neurons
- TH-positive neurons, percentage of GDNF-maintained neurons (dopaminergic neurons): protects dopaminergic neurons in vitro
- clinical score (SOD1-G93A mice; single i.c.v. 3.75 μg at 13 weeks of age): statistically significantly better clinical scores
- rotarod latency to fall (SOD1-G93A mice; single i.c.v. 3.75 μg, 4-40 rpm, cut-off 4 min): improves the motor behavior
- blood-brain-barrier penetration (radioactivity in brain) [2]: capable of penetrating neuronal cell membrane as well as the blood-brain-barrier
- infarction volume ([3]; 50 μg s.c. before dMCA occlusion and after reperfusion, rostral part of cerebral cortex, 2 days after dMCAo): decreases the infarction volume
- lesion size, smaller than in vehicle treated rats ([3]; 50 μg s.c. before occlusion and after reperfusion, vs PBS): about 50%
- blood pressure and heart rate ([3]; rat, in vivo): does not affect blood pressure and heart rate
